Publication doi:10.1101/216143
pKd: −log10 of the molar value.

Molecular target: unmodified R1810 peptide of the RNAP2-CTD (human)
Assay: MST

pKd: 6.66
Substance: recombinant PADI2 (peptidyl arginine deiminase 2) (from UniProt Q9Y2J8 1-665) (enzyme)
